Assay results as given in patent US20030165468A1, “Regulated vectors for controlling DNA hypermutability in eukaryotic cells” (priority 2002, published 2003).

B1: PMS134: dominant negative mismatch repair protein, expressed from pIRES-PMS134-TK with a C-terminal V5 tag (protein, listed as Homo sapiens)
chain: RGGSGVASMERAESSSTEPAKAIKPIDRKSVHQICSGQVVLSLSTAVKELVENSLDAGATNIDLKLKDYGVDLIEVSDNGCGVEEENFEGLTLKHHTSKIQEFADLTQVETFGFRGEALSSLCALSDVTISTCHASAKVGT
modifications: C-terminal V5 tag

Tests used:
[1] = tested on: cells expressing the HSV-TK gene product; assay: Negative selection with ganciclovir of cultures containing pIRES-PMS134-TK; assay type: cell-based, human; settings: HEK293 cultures with pIRES-PMS134-TK; ganciclovir for 5 days, then 10 days in growth media alone
Procedure: Once a hypermutable cell line is developed, it can be screened for to identify subclones with novel phenotypes for target discovery and/or product development. Once the subclone with a desired phenotype is identified, it is important to be able to restore the DNA stability within the host cell. In order to accomplish this, one must remove or completely suppress the expression of the mutator gene. Briefly, cultures are grown in the presence of the prodrug ganciclovir (Sigma), which kills cells expressing the HSV-TK gene product for 5 days. After 5 days, cells are grown for 10 days in growth media alone at which time greater than 95% of cells die off. Resistant clones are then picked and expanded in 10 cm petri dishes. Cells are grown for 3 weeks and then a portion is analyzed for PMS134 expression by western blot and RT-PCR. […] Analysis of cells after two months of culture have not observed re-expression of the PMS 134 gene using western or RT-PCR analysis (not shown). […] No de novo instable microsatellites are observed in the GR cells in contrast to the parental IRES-PMS134-TK line as expected.

[2] = tested on: 293 cells; assay: Microsatellite instability of endogenous loci using the BAT26 diagnostic marker; assay type: cell-based, human; settings: PMS134 expressing 293 cells
Procedure: Next, selected clones expressing PMS134 are expanded and analyzed for MMR deficiency using methods as previously described. Briefly, cells containing the pIRES-PMS134-TK vector or control were measured for microsatellite instability of endogenous loci using the BAT26 diagnostic marker as described (Hoang J. M. et al. (1997) Cancer Res. 57:300-303). Cells are harvested and genomic DNA is isolated using the salting out method (Nicolaides, N. C. et al. (1991) Mol. Cell. Biol. 11:6166-6176). DNAs are diluted by limiting dilution to determine the level of sensitivity of the assay. DNAs are PCR amplified using the BAT26F: 5′-[…]-3′ (SEQ ID NO: 25) and the BAT26R: 5′-[…]-3′ (SEQ ID NO: 26) primers in buffers as described (Nicolaides, N. C. et al. (1995) Genomics 30:195-206). Briefly 1 pg to 100 ngs of DNA is amplified using the following conditions: 94° C. for 30 sec, 58° C. for 30 sec, 72° C. for 30 sec for 30 cycles. PCR reactions are electrophoresed on 12% polyacrylamide TBE gels (Novex) or 4% agarose gels and stained with ethidium bromide.
To measure for microsatellite stability in 293 cells, DNAs were amplified using the reaction conditions above.

Molecule | cells die off [1] | effect on mismatch repair (MMR) ([2]; biochemical and genetic manifestations of MMR deficiency) | microsatellite instability (altered BAT26 alleles) ([2]; no altered alleles in MMR-proficient control cells)
Nc1nc(O)c2ncn(COC(CO)CO)c2n1 [ganciclovir] | greater than 95% | – | –
B1 | – | robust dominant negative effect | a number of alterations
